Data from article PMC9006937, “Structure-Based Design and Antigenic Validation of Respiratory Syncytial Virus G Immunogens” (Journal of Virology, 2022).
Values joined by “and” are separate entries in the source; they are usually repeats but may differ in a detail not shown here. Identical values can stand only once.

Key:
Test in all cases: BLI; Octet RED384; MAb (1 µg/mL) captured on anti-human IgG Fc (AHC) biosensors; RSV G^ecto proteins in solution, 40 nM 2-fold serially diluted to 0.63 nM (higher starting concentrations for CX4C); PBS pH 7.4, 0.05% Tween 20, 1% BSA; association 300 s, dissociation 600 s; global 1:1 fit; in duplicate
[1] = biological target: human anti-RSV G monoclonal antibody 2D10 (human)
[2] = biological target: human anti-RSV G monoclonal antibody 3D3 (human)
[3] = biological target: human anti-RSV G monoclonal antibody 3G12 (human)
[4] = biological target: T1, RSV G ectodomain wild-type protein (RSV strain A2, residues 64 to 298) (Human respiratory syncytial virus A, …, UniProt P03423); settings: both partners purified
T1 construct: glycosylated, runs at about 90 kDa on SDS-PAGE; also called RSV G^ecto WT; wild-type RSV G

Molecule | Kd [1] | koff [1] | kon [1] | Kd [2] | koff [2] | kon [2] | Kd [3] | koff [3] | kon [3] | Kd [4] | koff [4] | kon [4]
RSV G ectodomain S177R mutant protein (residues 64 to 298) (from UniProt P03423 64-298) (domain or fragment) | < 1 pM | < 1e-07 s⁻¹ | 318000 M⁻¹ s⁻¹ and 253000 M⁻¹ s⁻¹ | 422 pM and 570 pM | 0.000104 s⁻¹ and 0.000151 s⁻¹ | 247000 M⁻¹ s⁻¹ and 265000 M⁻¹ s⁻¹ | 4340 pM and 4600 pM | 0.000581 s⁻¹ and 0.000672 s⁻¹ | 134000 M⁻¹ s⁻¹ and 146000 M⁻¹ s⁻¹ |  |  | 
RSV G ectodomain S177Q mutant protein (residues 64 to 298) (from UniProt P03423 64-298) (domain or fragment) | 605 pM and 485 pM | 0.000225 s⁻¹ and 0.00015 s⁻¹ | 371000 M⁻¹ s⁻¹ and 310000 M⁻¹ s⁻¹ | 538 pM and 264 pM | 0.000199 s⁻¹ and 0.000109 s⁻¹ | 369000 M⁻¹ s⁻¹ and 414000 M⁻¹ s⁻¹ | 1880 pM and 2280 pM | 0.000447 s⁻¹ and 0.000528 s⁻¹ | 238000 M⁻¹ s⁻¹ and 232000 M⁻¹ s⁻¹ |  |  | 
human anti-RSV G monoclonal antibody 3G12 (antibody, V domains shown, heavy chain of human MAb 3G12; light chain of human MAb 3G12; Whole IgG, captured by anti-human IgG Fc biosensors; also called MAb 3G12) VH: QLQLQESGPGLVKPSETLSLTCTVSGGSISSSNYYWGWIRQPPGKGLEWIASIHDSGSIYYNPSLRSRVTISVDTSKNQFSLKLSSVTAADTAVYYCARHLVWFGELRNNWFDPWGQGTLVTVAS VL: EIVMTQSPATLSVSPGERATLSCRASQSVNSNLAWYQHKPGQAPRLLIYGASTRATGIPARFSGSGSGTDFTLTISSLQSEDFAVYYCQQYNNWPLFGPGTKVDLK |  |  |  |  |  |  |  |  |  | 260 pM and 262 pM | 6.55e-05 s⁻¹ and 5.19e-05 s⁻¹ | 252000 M⁻¹ s⁻¹ and 198000 M⁻¹ s⁻¹
human anti-RSV G monoclonal antibody 3D3 (antibody, V domains shown, heavy chain of human MAb 3D3; light chain of human MAb 3D3; Whole IgG, captured by anti-human IgG Fc biosensors; also called MAb 3D3) VH: EEQLVESGGGLVQPGRSLRLSCVGSGLRFEEHAMHWVRQAPGRGLEWVSGISWNSGSVGYADSVKGRFTTSRDNAKDILFLEMNTLRSEDTALYFCAIMVATTKNDFHYYKDVWGKGTTVTVSS VL: QIVLTQSPATLSLSPGERATLSCRASQSVSNHLAWYQQKPGQAPRLLIYETSNRATGIPPRFSGSGSGTDFTLTISSLEPEDFAVYYCQQRNNWYTFGQGTKLEIK |  |  |  |  |  |  |  |  |  | < 1 pM | < 1e-07 s⁻¹ | 426000 M⁻¹ s⁻¹ and 431000 M⁻¹ s⁻¹
human anti-RSV G monoclonal antibody 2D10 (antibody, V domains shown, heavy-chain variable region of human MAb 2D10; human IgG1 heavy-chain constant region as in the pCMVR VRC01 heavy-chain vector (AIDS Reagent Program); light-chain variable region of human MAb 2D10; light-chain constant region of the pCMVR VRC01 light-chain vector; IgG1; variable regions of 2D10 put in place of those of antibody VRC01 in the pCMVR VRC01 vectors; also called MAb 2D10) VH: QVQLVQSGPEVKKPGASVRLSCKASGYVFTNYGVSWVRQAPGQGLEWMGWSSPYNGNTYYAQKLKARVTMTTDTSTNTAYMELRSLRSDDTAVYYCGRDMLGVVQAVAGPFDSWGQGTLVTVSS VL: DTPMTQSPSSVSASVGDRVTISCRASQGISNSLAWYQQKLGKAPQLLIYAASSLQSGVPSRFSGSGSGTDFTLTISSLQPEDFATYYCQQTNTFPFTFGPGTKVEVR |  |  |  |  |  |  |  |  |  | < 1 pM | < 1e-07 s⁻¹ | 370000 M⁻¹ s⁻¹ and 383000 M⁻¹ s⁻¹
